Reference: the RNAGym collection of RNA variant scans (doi:10.7554/elife.90254)

B1: LINE1-full (parent)
chain: UACGUAGGUGGUUUUCCCCUGAUAGUGCUAAGGGGGCCUGGAAGUUUGGACUGGGCAGAGCUCAACACAGCGUGGCAAAGUGGCUGUGGCUAGACUGCCUCUCUGGAUUCCUCGUCACUCAGCAGGGCAUCUCUGAGAGAAAUGCC

Variants of: B1
Assay: self-cleavage, relative activity (ratio to wild type); higher = more cleavage; in vitro, sequencing; the parent is a self-cleaving ribozyme

| Variant | self-cleavage |
| --- | --- |
| UACGGAGGUGGUUUUCCCCUGAUAGUGCUAAGGGGGCCUGGAAGUUUGGACUGGGCAGAGCUCAACACAGCGUGGCAAAGUGGCUGUGGCUAGACUGCCUCUCUGGGUUCCUCGUCACUCAGCAGGGCAUCUCUGAGAGAAAUGCC [U5G A107G] | 0.86 |
| UACGUCGGUGGUUUUCCCCUGAUAGUGCUAAGGGGGCCUGGAAGUUUGGACUGGGCAGAGCUCAACACAGCGUGGCAAAGUGGCUGUGGCUAGACUGCCUCUCUGGAUUCCUCGACACUCAGCAGGGCAUCUCUGAGAGAAAUGCC [A6C U115A] | 0.8 |
| UACGUCGGUGGUUUUCCCCUGGUAGUGCUAAGGGGGCCUGGAAGUUUGGACUGGGCAGAGCUCAACACAGCGUGGCAAAGUGGCUGUGGCUAGACUGCCUCUCUGGAUUCCUCGUCACUCAGCAGGGCAUCUCUGAGAGAAAUGCC [A6C A22G] | 0.46 |
| UACGCAGGUGGUUUUCCCCUGAUAGUGCUAAGGGGGCCUGGAAGUUUGGACUGGGCAGAGCUCAACACAGCGUGGCAAAGUGGCUGUGGCUAGACUGCCUCUCUGGAUUCCUCGUCACACAGCAGGGCAUCUCUGAGAGAAAUGCC [U5C U119A] | 0.98 |
| UACGCAGGUGGUUUUCCCCUGAUAGUGCUAAGGGGGCCUGGAAGUUUGGACUGGGCAGAGCUCAACACAGCGUGGCAAAGUGGCUGUGGCUAGACUGCCUCUCAGGAUUCCUCGUCACUCAGCAGGGCAUCUCUGAGAGAAAUGCC [U5C U104A] | 1.28 |
| UACGUGGGUGGUUUUCCCCUGGUAGUGCUAAGGGGGCCUGGAAGUUUGGACUGGGCAGAGCUCAACACAGCGUGGCAAAGUGGCUGUGGCUAGACUGCCUCUCUGGAUUCCUCGUCACUCAGCAGGGCAUCUCUGAGAGAAAUGCC [A6G A22G] | 1.19 |
| UACGUGGGUGGUUUUCCCCUGAUAGUGCUAAGGGGGCCUGGAUGUUUGGACUGGGCAGAGCUCAACACAGCGUGGCAAAGUGGCUGUGGCUAGACUGCCUCUCUGGAUUCCUCGUCACUCAGCAGGGCAUCUCUGAGAGAAAUGCC [A6G A43U] | 0.85 |
| UACGGAGGUGGUCUUCCCCUGAUAGUGCUAAGGGGGCCUGGAAGUUUGGACUGGGCAGAGCUCAACACAGCGUGGCAAAGUGGCUGUGGCUAGACUGCCUCUCUGGAUUCCUCGUCACUCAGCAGGGCAUCUCUGAGAGAAAUGCC [U5G U13C] | 0.83 |
| UACGUGGGUGGUUUUCCCCUGAUAGUGCUAAGGGGGCCUGGAAGUUUGGACUGGGCAGAGCUCAACACAGCGUGGCAAAGUGGCUGUGGCUAGACUGCCUCUCUGGAUUCCUCGUCACUCAGCAGGGCAUCUCUGAGAGAAAUGCC [A6G] | 0.91 |
| UACGUCGGUGGUUUUCCCCUGAUAGUGCUAAGGGGGCCUGGAAGUUUGGACUGGGCAGAGCUCAACACAGCGUGGCAAAGUGGCUGUGGCUAGACUGCCUCUCUGGAUUCCUCGUCACUCAGCAGGGCAUCUCUGAGAGAAAUGCC [A6C] | 1.08 |
| UACGGAGGUGGUUUUCCCCUGAUAGUGCUAAGGGGGCCUGGAAGUUUGGACUGGGCAGAGCUCAACACAGCGUGGCAAAGUGGCUGUGGCUAGACUGCCUCUCUGGAUUCCUCGUCACUCAGCUGGGCAUCUCUGAGAGAAAUGCC [U5G A124U] | 0.96 |
| UACGCAGGUGGUUUUCCCCUGAUAGUGCUAAGGGGGCCUGGAAGUUUGGACUGGGCAGAGCUCAACACAGCGUGGCAAAGUGGCUGUGGCUAGACUGCCCCUCUGGAUUCCUCGUCACUCAGCAGGGCAUCUCUGAGAGAAAUGCC [U5C U100C] | 1.52 |
| UACGGAGGUGGUUUUCCCCUGAUAGUGCUAAGGGGGCCUGGAAGUUUGGACUGGGCAGAGCUCAACACAGCGUGGCAAAGUGGCUGUGGCUAGACUGCCUCUCUGGAUUCCUCGUCACUCAGCAGGGCAUCUCUGAGAGAAAUGCC [U5G] | 0.76 |
| UACGGAGGUGGUUUUCCCCUGAUAGUGCUAAGGGGGCCUGGAAGUUUGGACUGGGCAGAGCUCAACACAGCGUGGCAAAGUGGCUGUGGCUAGACUGCCUCUCUGGAUUCCUCGUCACUCAGCAGGGCAUCCCUGAGAGAAAUGCC [U5G U132C] | 1.04 |
| UACGUCGGUGGUUUUCCCCUGAUAGUGCUAAGGGGGCCUGGAAGUUUGGACUGGGCAGAGCUCAACACAGCGUGGCAAAGUGGCGGUGGCUAGACUGCCUCUCUGGAUUCCUCGUCACUCAGCAGGGCAUCUCUGAGAGAAAUGCC [A6C U85G] | 0.46 |
| UACGGAGGUGGUUUUCCCCUGAUAGUGCUAAGGGGGCCUGGAAGUUUGGACUGGGCAGAGCUCAACACAGCGUGGCAAAGUGGCUGUGGCUAGACUGCCUCUCUGGAUUCCUCGUCACUCAGCAGGGCAUCUCUGAGAGACAUGCC [U5G A141C] | 0.56 |
| UACGCAGGUGGUUUUCCCCUGAUAGUGCUAAGGGGGCCUGGAAGUUUGGACUGGGCAGAGCUCAACACAGCGUGGCAAAGUGGCUGUGGCUAGACUGCCUCUCUGGAUUCCUCGUCACUCAGCAGGGCAUCCCUGAGAGAAAUGCC [U5C U132C] | 0.86 |
| UACGCAGGUGGUUUUCCCCUGAUAGUGCUAAGGGGGCCUGGAAGUUUGGACUGGGCAGAGCUCAACACAGCGUGGCAAAGUGGCUGUGGCUAGACUGCCUCUCUGGACUCCUCGUCACUCAGCAGGGCAUCUCUGAGAGAAAUGCC [U5C U108C] | 1.57 |
| UACGCAGGUGGUUUUCCCCUGAUAGUGCUAAGGGGGCCUGGAAGUUUGGACUGGGCAGAGCUCAACACAGCGUGGCAAAGUGGCUGUGGCUAGACUGCCUCUCUGGAGUCCUCGUCACUCAGCAGGGCAUCUCUGAGAGAAAUGCC [U5C U108G] | 1.88 |
| UACGCAGGUGGUUUUCCCCUGAUAGUGCUAAGGGGGCCUGGAAGUUUGGACUGGGCAGAGCUCAACACAGCGUGGCAAAGUGGCUGUGGCUAGACUGCCUCCCUGGAUUCCUCGUCACUCAGCAGGGCAUCUCUGAGAGAAAUGCC [U5C U102C] | 1 |

| Variant | self-cleavage |
| --- | --- |
| UACGUGGGUGGUUUUCCCCUGAUAGUGCUAUGGGGGCCUGGAAGUUUGGACUGGGCAGAGCUCAACACAGCGUGGCAAAGUGGCUGUGGCUAGACUGCCUCUCUGGAUUCCUCGUCACUCAGCAGGGCAUCUCUGAGAGAAAUGCC [A6G A31U] | 1.01 |
| UACGCAGGUGGUUUUCCCCUGAUAGUGCUAAGGGGGCCUGGAAGUUUGGACUGGGCAGAGCUCAACACAGCGUGGCAAAGUGGCUGUGGCUAGACUGCCUCUCUGGAUUCCUCGUCACUCAGCAGGGCACCUCUGAGAGAAAUGCC [U5C U130C] | 1.4 |
| UACGCAGGUGGUUUUCCCCUGAUAGUGCUAAGGGGGCCUGGAAGUUUGGACUGGGCAGAGCUCAACACAGCGUGGCAAAGUGGCUGUGGCUAGACUGCCUCUCUGGAUCCCUCGUCACUCAGCAGGGCAUCUCUGAGAGAAAUGCC [U5C U109C] | 0.91 |
| UACGUCGGUGGUUUUCCCCUGAUAGUGCUAAGGGGGCCUGGAAGCUUGGACUGGGCAGAGCUCAACACAGCGUGGCAAAGUGGCUGUGGCUAGACUGCCUCUCUGGAUUCCUCGUCACUCAGCAGGGCAUCUCUGAGAGAAAUGCC [A6C U45C] | 1.18 |
| UACGUCGGUGGUUUUCCCCUGAUAGUGCUAAGGGAGCCUGGAAGUUUGGACUGGGCAGAGCUCAACACAGCGUGGCAAAGUGGCUGUGGCUAGACUGCCUCUCUGGAUUCCUCGUCACUCAGCAGGGCAUCUCUGAGAGAAAUGCC [A6C G35A] | 1.5 |
| UACGCAGGUGGUUUUCCCCUGAUAGUGCUAAGGGGGCCUGGAAGUUUGGACUGGGCAGAGCUCAACACAGCGUGGCAAAGUGGCUGUGGCUAGACUGCCUCUCUGGAUUCCUCGCCACUCAGCAGGGCAUCUCUGAGAGAAAUGCC [U5C U115C] | 1.27 |
| UACGCAGGUGGUUUUCCCCUGAUAGUGCUAAGGGGGCCUGGAAGUUUGGACUGGGCAGAGCUCAACACAGCGUGGCAAAGUGGCUGUGGCUAGACUGCCUCUCUGGAUUCCUCGACACUCAGCAGGGCAUCUCUGAGAGAAAUGCC [U5C U115A] | 0.91 |
| UACGUCGGUGGUUUUCCCCUGAUAGUGCUAAGGGGGCCUGGAAGUUUGGACUGGGCAGAGCUCAACACAGCGUGGCAAAGUGGCUGUGGCUAGACUGCCUCUCUGGAUUCCUCGUCACUCAGCUGGGCAUCUCUGAGAGAAAUGCC [A6C A124U] | 1.13 |
| UACGUCGGUGGUUUUCCCCUGAUAGUGCUAUGGGGGCCUGGAAGUUUGGACUGGGCAGAGCUCAACACAGCGUGGCAAAGUGGCUGUGGCUAGACUGCCUCUCUGGAUUCCUCGUCACUCAGCAGGGCAUCUCUGAGAGAAAUGCC [A6C A31U] | 0 |
| UACGUGGGUGGUUUUCCCCUGAUAGUGCUAAGGGGGCCUGGAAGUUUGGCCUGGGCAGAGCUCAACACAGCGUGGCAAAGUGGCUGUGGCUAGACUGCCUCUCUGGAUUCCUCGUCACUCAGCAGGGCAUCUCUGAGAGAAAUGCC [A6G A50C] | 1.23 |
| UACGUGGGUGGUUUUCCCCUGAUAGUGCUAAGGGGGCCUGGAAGUUUGGUCUGGGCAGAGCUCAACACAGCGUGGCAAAGUGGCUGUGGCUAGACUGCCUCUCUGGAUUCCUCGUCACUCAGCAGGGCAUCUCUGAGAGAAAUGCC [A6G A50U] | 0.51 |
| UACGUGGGUGGUUUUCCCCUGAUAGUGCUAAGGGGGCCUGGAAGUUUGGGCUGGGCAGAGCUCAACACAGCGUGGCAAAGUGGCUGUGGCUAGACUGCCUCUCUGGAUUCCUCGUCACUCAGCAGGGCAUCUCUGAGAGAAAUGCC [A6G A50G] | 0.77 |
| UACGGAGGUGGUUUUCCCCUGAUAGUGCUAAGGGGGCCUGGAAGUUUGGACUGGGCAGAGCUCAACACAGCGUGGCAAAGUGGCUGUGGCUAGACUGCCUCUCUGGAUUCCCCGUCACUCAGCAGGGCAUCUCUGAGAGAAAUGCC [U5G U112C] | 0.51 |
| UACGGAGGUGGUUUUCCCCUGAUAGUGCUAAGGGGGCCUGGAAGUUUGGACUGGGCAGAGCUCAACACAGCGUGGCAAAGUGGCUGUGGCUAGACUGCCUCUCUGGAUUCCUCGUCACUCGGCAGGGCAUCUCUGAGAGAAAUGCC [U5G A121G] | 0.84 |
| UACGUCGGUGGUUUUCCCCUGAUAGUGCUAAGGGGGCCUGGAAGUUUGGACUGGGCAGAGCUCAACACAGCGUGGCAAAGUGGCUGUGGCUAGACUGCCUCUCUGGAUUCCUCGUCACACAGCAGGGCAUCUCUGAGAGAAAUGCC [A6C U119A] | 1.36 |
| UACGUCGGUGGUUUUCCCCUGAUAGUGCUAAGGGGGCCUGGAAGUUUGGACUGGGCAGAGCUCAACACAGCGUGGCAAAGUGGCUGUGGCUAGACAGCCUCUCUGGAUUCCUCGUCACUCAGCAGGGCAUCUCUGAGAGAAAUGCC [A6C U96A] | 0.17 |
| UACGGAGGUGGCUUUCCCCUGAUAGUGCUAAGGGGGCCUGGAAGUUUGGACUGGGCAGAGCUCAACACAGCGUGGCAAAGUGGCUGUGGCUAGACUGCCUCUCUGGAUUCCUCGUCACUCAGCAGGGCAUCUCUGAGAGAAAUGCC [U5G U12C] | 0.77 |
| UACGGAGGUGGUUUUCCCCUGAUAGUGCUAAGGGGGCCUGGAAGUUUGGACUGGGCAGAGCUCGACACAGCGUGGCAAAGUGGCUGUGGCUAGACUGCCUCUCUGGAUUCCUCGUCACUCAGCAGGGCAUCUCUGAGAGAAAUGCC [U5G A64G] | 0.23 |
| UACGGAGGUGGUUUUCCCCUGAUAGUGCUAAGGGGGCCUGGAAGUUUGGACUGGGCAGAGCUCAACUCAGCGUGGCAAAGUGGCUGUGGCUAGACUGCCUCUCUGGAUUCCUCGUCACUCAGCAGGGCAUCUCUGAGAGAAAUGCC [U5G A67U] | 0.31 |
